# B1: DBD alone (other, human, UniProt P03372 176-282, looked up)
# chain: MESAKETRYCAVCNDYASGYHYGVWSCEGCKAFFKRSIQGHNDYMCPATNQCTIDKNRRKSCQACRLRKCYEVGMMKGGIRKDRRGGRMLKHKRQRDDGEGRGEVGS
# notes: Two-hybrid bait control without a motif
# Target: T1, AAD-ER (acidic activation domain fused to the LBD of the wild-type ER) (human, UniProt P03372 282-595)
# T1 construct: range 282-595; Yeast two-hybrid prey; tested with or without 10^-7 M 17-beta-estradiol (E2); also called LBD of the ER; ER LBD
# T1 sequence (looked up): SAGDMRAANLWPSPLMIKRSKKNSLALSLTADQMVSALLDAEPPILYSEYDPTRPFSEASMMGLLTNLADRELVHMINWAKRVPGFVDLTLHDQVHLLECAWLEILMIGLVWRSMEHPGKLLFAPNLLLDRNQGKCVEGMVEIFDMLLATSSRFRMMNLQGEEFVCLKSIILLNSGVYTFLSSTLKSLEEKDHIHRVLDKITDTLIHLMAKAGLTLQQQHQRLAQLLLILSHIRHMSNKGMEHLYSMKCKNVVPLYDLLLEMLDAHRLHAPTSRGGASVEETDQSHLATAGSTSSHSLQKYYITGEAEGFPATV
# Assay: yeast two-hybrid
binder,measurement,value
B1,binding result,no binding

# Source: patent EP0980526B1 (IMPERIAL CANCER RESEARCH TECHNOLOGY LIMITED, dated 1998)
